The target of assay [1] is T1, human CLDN18.1 (human, UniProt P56856 1-261).
T1 construct: also called CHO-CLDN18.1 cells
The assay can be described thus: flow cytometry on CHO-CLDN18.1 cells. On the procedure: Flow cytometry was used to detect the binding capacity of anti-CLDN18.2 antibodies to cells expressing CLDN18.2, and the specificity of not binding to CLDN18.1 of the antibody was further detected. The experimental procedure overview was as follows: CLDN18.2 positive cells (KATOIII or CHO-CLDN18.2) and negative cells (CHO-CLDN18.1) were collected, washed once with PBS, resuspended in PBS, and plated on a 96-well V-bottom plate (Cat. No. 3897, Costar) at 0.1 million cells/50 μL/well. The antibody was pre-diluted to 333.2 nM with PBS, then diluted 2-fold with 9 gradients, added at 50 μL/well to the cells in the 96-well V-bottom plate described above, and mixed well (final antibody concentrations: 166.6, 83.3, 41.6, 20.8, 10.4, 5.2, 2.6, 1.3, 0.65, and 0.325 nM). The mixture was incubated at 4° C. for 1 h and washed twice with PBS. Then 100 μL of 1:500 diluted goat anti-human IgG-Fc PE fluorescent secondary antibody (Cat. No. 12-4998-82, eBioscience) was added. The mixture was incubated at 4° C. for 1 h, washed twice with PBS, and analyzed with a CytoFLEX flow cytometer (model: AOO-1-1102, Beckman). [0192]

The target of assay [2] is human CLDN18.2 (human). The assay is described as follows: cell-based or functional assay.

Here are results for three molecules from patent US20240092892A1 (BIO THERA SOLUTIONS, published 2024).

T1 sequence (P56856 whole entry): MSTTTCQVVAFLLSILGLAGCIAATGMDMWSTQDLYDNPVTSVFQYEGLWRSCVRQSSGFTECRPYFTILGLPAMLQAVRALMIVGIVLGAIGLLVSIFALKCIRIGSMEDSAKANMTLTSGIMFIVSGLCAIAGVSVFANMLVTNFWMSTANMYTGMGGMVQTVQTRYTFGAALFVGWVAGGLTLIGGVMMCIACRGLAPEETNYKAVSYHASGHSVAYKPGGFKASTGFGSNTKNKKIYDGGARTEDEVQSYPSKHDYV

B1: H239H-2a-K-6a (antibody, human IgG1, kappa, V domains shown)
VH: EVQLLESGGGLVQPGGSLRLSCAASGFTFSDYGMHWVRQAPGKGLEWVAYISRGRSTTYSTDTVKGRFTISRDSSKNTLYLQMNSLRAEDTAVYYCARGSYYGNAMDYWGQGTLVTVSS
VL: DIVMTQSPDSLAVSLGERATINCKSSQSLLNSGNQRNYLTWYQQKPGQPPKLLIYWASTRESGVPDRFSGSGSGTDFTLTISSLQAEDVAVYYCQSAYSYPFTFGGGTKLEIKR
notes: Humanized antibody derived from CH239H-2-K-6, human IgG1/kappa constant regions; also called H239H-2a-K-6α
As to B1, the binding result in assay [1] was “no binding”.

B2: H239H-2b-K-6a (antibody, human IgG1, kappa, V domains shown)
VH: EVQLLESGGGLVQPGGSLRLSCAASGFTFSDYGMHWVRQAPGKGLEWVAYISRGRSTTYSTDTVKGRFTISRDNSKNTLYLQMNSLRAEDTAVYYCARGSYYGNAMDYWGQGTLVTVSS
VL: DIVMTQSPDSLAVSLGERATINCKSSQSLLNSGNQRNYLTWYQQKPGQPPKLLIYWASTRESGVPDRFSGSGSGTDFTLTISSLQAEDVAVYYCQSAYSYPFTFGGGTKLEIKR
notes: Humanized antibody derived from CH239H-2-K-6, human IgG1/kappa constant regions; also called H239H-2b-K-6α
For the molecule B2, in assay [2], the “ADCC Reporter Bioassay (Jurkat-NFAT-luc-FcγRIIIa effector cells, luciferase) EC50” value stood at 0.0625 nM and the “CDC cell killing rate (CCK-8, 5% human serum complement) IC50” value was 0.291 nM. Besides, the binding result in assay [1] is listed as “no binding”.

B3: IMAB362 (antibody, V domains shown)
VH: QVQLQQPGAELVRPGASVKLSCKASGYTFTSYWINWVKQRPGQGLEWIGNIYPSDSYTNYNQKFKDKATLTVDKSSSTAYMQLSSPTSEDSAVYYCTRSWRGNSFDYWGQGTTLTVSS
VL: DIVMTQSPSSLTVTAGEKVTMSCKSSQSLLNSGNQKNYLTWYQQKPGQPPKLLIYWASTRESGVPDRFTGSGSGTDFTLTISSVQAEDLAVYYCQNDYSYPFTFGSGTKLEIKR
On to B3, for which, in assay [2], the “ADCC Reporter Bioassay (Jurkat-NFAT-luc-FcγRIIIa effector cells, luciferase) EC50” value amounted to 0.795 nM and the “CDC cell killing rate (CCK-8, 5% human serum complement) IC50” value stood at 5.87 nM.
